According to doi:10.1101/2025.08.21.671446 (bioRxiv, 2025):
Several values for one entry are separate records, joined by “and”; a condition that tells them apart may be missing. Identical values can stand only once. Like-named read-outs stand apart in the source and are kept apart here.

Tests used:
MoyR [1] = molecular target: T1, MoyR (Mycobacterium tuberculosis H37Rv, UniProt O86331 1-269); assay: EMSA
T1 sequence: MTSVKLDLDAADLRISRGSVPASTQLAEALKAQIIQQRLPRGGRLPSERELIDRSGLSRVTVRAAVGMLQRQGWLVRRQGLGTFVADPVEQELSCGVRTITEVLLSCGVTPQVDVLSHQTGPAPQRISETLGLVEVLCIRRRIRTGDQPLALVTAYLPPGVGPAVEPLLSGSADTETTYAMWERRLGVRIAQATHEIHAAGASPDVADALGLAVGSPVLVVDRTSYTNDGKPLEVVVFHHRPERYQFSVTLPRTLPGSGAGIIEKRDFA

MoyR [2] = molecular target: T1, MoyR; assay: EMSA; remark: listed apart in the source
MoyR [3] = molecular target: T1, MoyR; assay: EMSA; remark: listed apart in the source
SEC [4] = molecular target: the molecule itself; assay: SEC
SEC [5] = molecular target: the molecule itself; assay: SEC; remark: listed apart in the source

B1: moyOf4 (dsDNA)
DNA 1: TAGCAGCGGAAGAAGGTCA
DNA 2: TGACCTTCTTCCGCTGCTA
binding result (MoyR [1]): no binding

B2: moyOf6 (20 bp) (dsDNA)
DNA 1: AGCTTGACAGATGTCATAAG
DNA 2: CTTATGACATCTGTCAAGCT
binding result (MoyR [2]): no binding

B3: moyOf1 (47 bp) (dsDNA)
DNA 1: AGCTTGACAGATGTCATAAGACGTATTAAAACGTCTTATACTCACCA
DNA 2: TGGTGAGTATAAGACGTTTTAATACGTCTTATGACATCTGTCAAGCT
Kd (MoyR [3]): 16.6 nM

B4: MoyR (Rv0792c), GntR family (HutC subfamily) monooxygenase regulator of Mycobacterium tuberculosis (natural protein)
chain: MTSVKLDLDAADLRISRGSVPASTQLAEALKAQIIQQRLPRGGRLPSERELIDRSGLSRVTVRAAVGMLQRQGWLVRRQGLGTFVADPVEQELSCGVRTITEVLLSCGVTPQVDVLSHQTGPAPQRISETLGLVEVLCIRRRIRTGDQPLALVTAYLPPGVGPAVEPLLSGSADTETTYAMWERRLGVRIAQATHEIHAAGASPDVADALGLAVGSPVLVVDRTSYTNDGKPLEVVVFHHRPERYQFSVTLPRTLPGSGAGIIEKRDFA
stoichiometry N (SEC [4]): 2 | stoichiometry N (SEC [5]): 4 and 6
